Source: patent publication US6613358B2, “Sustained-release composition including amorphous polymer” (priority 1998, dated 2003)
“And” between values parts separate entries of the source, which are not always exact repeats. Identical values can stand only once. Peptide text beside a SMILES is read from it.

Experiments:
[1] = Apparent partition coefficient water/1-octanol upon SDS addition
Description: The relative solubilities in two phases is given in terms of an apparent partition coefficient. The apparent partition coefficient is defined as the ratio of the equilibrium concentration in an organic phase to that in an aqueous phase. The actual value of the apparent partition coefficient, P, is dependent on the two solvent systems employed. In all cases herein described, the organic phase is 1-octanol and the aqueous phase is water alone or with a minimal amount of HCl added.
Apparent partition coefficients were measured by dissolving a peptide in 1.25 ml of an aqueous solution. Before SDS addition, the pH was measured on a Beckman pH meter. […] An equal volume of 1-octanol was added and the mixtures agitated, and then left undisturbed for several hours. Prior to analysis, the tubes were spun for 10 minutes at 4000 g. Each layer was removed and the absorbance measured on a Beckman DU-64 UV-visible spectrophotometer using I cm quartz cells. All apparent partition coefficients were corrected for changes in pH with differing SDS concentrations.
Results are described as logarithms of the apparent partition coefficient. A log P value of 0 means that the compound is equally soluble in water and the organic phase. […] All of the log P values reported herein have been corrected for slight changes in solubility with pH.

[2] = Solubility of arginine octyl ester powder; type: physicochemical
[3] = Surface tension, critical micelle concentration; type: physicochemical; settings: in 0.1 N HCl
Description: Surface tension was measured using a Fisher surface tensiometer. Briefly, a platinum iridium ring with a diameter of 6 cm was lowered into the appropriate dilution of detergent in 0.1 N HCl. Surface tension was read at the point where the force on the ring upwards caused the ring to break contact with the liquid surface.

[4] = Partitioning of anionic compounds with arginine esters; type: physicochemical; settings: for log p: pH 5.5 buffer, 1 mg/mL
Description: Stock solutions of the arginine esters were made by first dissolving the powder in 0.1 N HCl to give a 10 mM solution and then raising the pH to a value between 5 and 6. The pH should not be raised above 8.
Anionic compounds were dissolved in pH 5.5 buffer (10 mM bis-tris propane, 10 mM CaCl2, 10 mM KCl). Appropriate amounts of the stock solution of arginine ester (see above), the anionic compound and buffer were mixed so that the final concentration of the anionic material was 1 mg/mL. An equal volume of organic solvent was added, and the samples were vortexed for 15 seconds on high speed. Layers were separated by centrifugation at 4000 rpm for 5 minutes. Concentrations of the anionic material in the aqueous and organic layers were determined by UV spectroscopy on a Beckman DU-64 series spectrophotometer.

COS-7 cells = test: Cytotoxicity, MTS cell proliferation assay; type: cell-based, green monkey; settings: Chlorocebus sabaeus, 2-6 hours exposure, 72 hours incubation, read-out: IC50 (half-maximal growth inhibition)
Description: (§1) The cytotoxicity of arginine dodecyl ester was investigated in cell culture with two types of cells (see Cory et al, Cancer Commun., 3, 207-212 (1991)): CCRF-CEM cells, a human T-cell leukemia cell line that grows in suspension (obtained from the American Type Culture Collection, ATCC); and a green monkey kidney cell line (COS-7) that grows in monolayers (also obtained from ATCC). For comparison, the cells were also exposed to […] bromide (DTAB) (Sigma).
Cells were plated into 96-well plates (Corning) in a total of 200 μL Dulbecco's modified minimal essential medium for COS-7 cells, RPMI 1640 for CEM cells, supplemented with penicillin G (50 U/ml), streptomycin sulfate (50 μg/ml), and 10% fetal calf serum, at 10,000 cells/well for COS-7 and 50,000 cells/well for CEM cells. The plates were incubated at 37° C. for 24 hours after plating. The cells were then exposed to various concentrations of the detergents. Each detergent concentration was used in 8 replicate wells. After 2-6 hours, media/detergent solutions were aspirated, and the wells were washed twice with PBS. For CEM suspension cells, centrifugation of the suspension at 1000× g for 5 min between each wash was required. […] After 72 hours, cell proliferation was determined using the Promega CellTiter 96 AQueous Non-Radioactive Cell Proliferation Assay. […]

CCRF-CEM cells = test: Cytotoxicity, MTS cell proliferation assay; type: cell-based, human; settings: Homo sapiens, 2-6 hours exposure, 72 hours incubation, read-out: IC50 (half-maximal growth inhibition)
Description: as §1
Cells were plated into 96-well plates (Corning) in a total of 200 μL Dulbecco's modified minimal essential medium for COS-7 cells, RPMI 1640 for CEM cells, supplemented with penicillin G (50 U/ml), streptomycin sulfate (50 μg/ml), and 10% fetal calf serum, at 10,000 cells/well for COS-7 and 50,000 cells/well for CEM cells. The plates were incubated at 37° C. for 24 hours after plating. The cells were then exposed to various concentrations of the detergents. Each detergent concentration was used in 8 replicate wells. After 2-6 hours, media/detergent solutions were aspirated, and the wells were washed twice with PBS. For CEM suspension cells, centrifugation of the suspension at 1000× g for 5 min between each wash was required. After washing, 200 μL of fresh medium were added, and the cells were incubated for 72 hours. After 72 hours, cell proliferation was determined using the Promega CellTiter 96 AQueous Non-Radioactive Cell Proliferation Assay.

[5] = Partitioning and dissolution of SDS-insulin complexes in non-aqueous solvents; type: physicochemical; settings: for Apparent Sol. / Log P: SDS-insulin complex
Excerpt: Dissolution of insulin-SDS complexes in other solvents was investigated as well (Table 1). Precipitates of SDS-insulin complexes were isolated and added to various organic solvents. […] Besides alcohols. SDS-insulin complexes are soluble in N-methylpyrrolidone (NMP), trimethylphosphate (TRIP), polyethylene glycol, ethanol, and t-butanol.

[6] = Melting point of SDS:insulin ion pairs in 1-octanol (CD signal and absorbance at 222 nm); type: physicochemical
Description: Equal volumes of octanol were added to each SDS:insulin solution to partition the insulin into the octanol phase. […] Both circular dichroism (CD) signal and light scattering (as measured by changes in absorbance) were measured at 222 nm and the melting point determined by an inflection point in the measured scan.

[7] = Thermal denaturation (Tm) following molar ellipticity at 222 nm; type: physicochemical
Excerpt: [define Tm. […] (FIG. 6), which is more than 30 degrees above that observed in water.

[8] = type: physicochemical
Excerpt: Larger proteins can also form complexes with SDS. […] At higher SDS concentrations, hGH redissolves, presumably via micellar solubilization. […] Other proteins can also form complexes with SDS. Bovine pancreatic trypsin inhibitor (BPTI) is a small basic protein (MW 5900) with a well defined and stable structure (Wlodawer et. al. (1984) J. Mol. Biol. 180:301-329, and (1987) J. Mol. Biol. 193:145-156). […] In TMP, the globular structure is compromised, as determined by CD spectroscopy. Apparently, TMP is a strong enough solvent to displace water from the hydration sphere and destabilize the structure of BPTI. This mechanism of protein denaturation has been described in detail by Arakawa and […] (1982) Biochemistry 21:6536-6544. and (1982) Biochemistry 21:6545-6552.

[9] = CD spectrometry of protein structure in organic solvent; type: physicochemical; settings: extracted from 1-octanol into 0.10 M HCl; 53 ug/ml, 5° C.
Description: CD spectra were recorded on an Aviv 62DS spectrophotometer equipped with a thermoelectric temperature unit. All temperatures were measured ±0.2° C. Samples were placed in strain-free quartz cells (pathlength of 1 mm) and spectra obtained taking data every 0.25 nm using a three second averaging time, and having a spectral bandwidth of 1 nm.
The pathlength was 1 mm, the sample concentration 53 ug/ml, and the sample temperature 5° C.

[10] = organic solvent Propylene Glycol
[11] = organic solvent Trifluoroethanol
[12] = organic solvent Trimethyl phosphate

For Gly-Phe-NH2, the “partitioning of SDS complex into 1-octanol” value ([1]; pH 7, 1:1 complex with SDS) was “readily partitions into 1-octanol”.

For `CCCCCCCCOC(=O)[C@@H](N)CCCNC(=N)N` [arginine octyl ester], the “dissolution in HCl” value [2] was “would only dissolve in 0.1 N or stronger HCl”, the solubility in water [2] was “insoluble” and the solubility in organics ([2]; alcohols, hydrocarbons, aromatics, DMF and pyridine) was “insoluble”. The “critical micelle concentration (cmc)” value [3] was “about 6 mM and ~2.2 mg/ml”.

With `Cc1ccc(S(=O)(=O)[O-])cc1.[Na+]` [p-toluenesulfonic acid, sodium salt] the log p ([4]; Ester C8 (arginine octyl ester), solvent isooctane) was −2.2, the log p ([4]; Ester C8 (arginine octyl ester), solvent octanol) was −0.353 and the log p ([4]; Ester C12 (arginine dodecyl ester), solvent octanol) was −0.336. For the same compound, the log p ([4]; Ester none, solvent isooctane) was −2.7 and the log p ([4]; Ester none, solvent octanol) was −1.62.

In the case of `CCCCCCCCCCCCCC[N+](C)(C)C` [DTAB, tetradecyltrimethylammonium bromide, reference compound], the IC50 (COS-7 cells) is reported as 80 µM and the IC50 (CCRF-CEM cells) is reported as 20 µM.

With “bovine serum albumin: protein tested for partitioning with arginine dodecyl ester” the “partitioning into octanol layer” value ([4]; arginine dodecyl ester added, solutions turned cloudy) was “none would partition into octanol layer”.

In the case of `NCC(=O)N[C@@H](Cc1ccccc1)C(=O)O` [Gly-Phe] (H-Gly-Phe-OH), the “enhancement of partition coefficient with SDS” value ([1]; neutral pH (zwitterionic form)) is reported as “little enhancement of the partition coefficient is observed” and the “partitioning with SDS” value ([1]; pH 3) is reported as “mirrors the marked increase seen for Gly-PheNH2”.

For “insulin-SDS complex: hydrophobic ion pair complex of insulin with sodium dodecyl sulfate”, the “solubility in organic solvents” value [5] was “soluble”, the “melting point in octanol (apparent maximum)” value ([6]; 6:1 SDS:insulin molar ratio, 200 ug/ml) was “about 116 °C” and the “melting point in octanol, absorbance scan at 222 nm” value ([6]; 9:1 SDS:insulin molar ratio) was 106 °C. For the same compound, the “melting point in octanol, CD scan at 222 nm” value ([6]; 9:1 SDS:insulin molar ratio, maxima of first derivative) was 106 °C and the “structure after prolonged heating” value ([7]; in 1-octanol, 70° C. for more than 1 hour) was “appears to maintain its native structure”.

With hGH: human growth hormone the “solubility of SDS precipitate in 1-octanol” value [8] was “not found to be soluble”, the “aqueous behaviour on addition of SDS” value ([8]; pH 2) was “precipitates from aqueous solution” and the “aqueous solubility on addition of SDS” value ([8]; pH 7.8) was “not affected”.

For `NC(=O)CC[C@@H]1NC(=O)[C@H](Cc2ccccc2)NC(=O)[C@H](Cc2ccc(O)cc2)NC(=O)[C@@H](N)CSSC[C@@H](C(=O)N2CCC[C@H]2C(=O)N[C@@H](CCCN=C(N)N)C(=O)NCC(N)=O)NC(=O)[C@H](CC(N)=O)NC1=O` [AVP, 8-Arg-vasopressin], the log p ([1]; pH 7) was > 1 and the “increase of apparent partition coefficient” value ([1]; upon stoichiometric SDS addition, water/1-octanol) was “nearly four orders of magnitude”.

With insulin the “Apparent Sol.” value ([5]; organic solvent 1-Chlorooctane) was “insoluble”, the “Log P” value ([5]; organic solvent 1-Chlorooctane) was “not detectable” and the “Apparent Sol.” value ([5]; organic solvent 1-octanol) was “≧1.0 mg/ml”. For the same compound, the “Log P” value ([5]; organic solvent 1-octanol) was “≧1.2”, the “Log P” value ([5]; organic solvent Acetone) was “miscible” and the “Apparent Sol.” value ([5]; organic solvent CCl4) was “insoluble”. For the same compound, the “Log P” value ([5]; organic solvent CCl4) was “not detectable”, the “Apparent Sol.” value ([5]; organic solvent CH2Cl2) was “insoluble” and the “Log P” value ([5]; organic solvent CH2Cl2) was “not detectable”. The “Apparent Sol.” value ([5]; organic solvent DMF) was “≧1.0 mg/ml”, the “Log P” value ([5]; organic solvent Dimethoxyethane) was “not detectable” and the “Apparent Sol.” value ([5]; organic solvent Ethanol) was “≧1.0 mg/ml”. For the same compound, the “Log P” value ([5]; organic solvent Ethanol) was “miscible”, the “Apparent Sol.” value ([5]; organic solvent Ether) was “insoluble” and the “Log P” value ([5]; organic solvent Ether) was “not detectable”. For the same compound, the “Apparent Sol.” value ([5]; organic solvent Ethyl acetate) was “insoluble”, the “Log P” value ([5]; organic solvent Ethyl acetate) was “miscible” and the “Apparent Sol.” value ([5]; organic solvent Hexane) was “insoluble”. The “Log P” value ([5]; organic solvent Hexane) was “not detectable”, the “Apparent Sol.” value ([5]; organic solvent Methanol) was “≧1.0 mg/ml” and the “Log P” value ([5]; organic solvent Methanol) was “miscible”. For the same compound, the “Apparent Sol.” value ([5]; organic solvent Mineral Oil) was “insoluble”, the “Log P” value ([5]; organic solvent Mineral Oil) was “not detectable” and the “Apparent Sol.” value ([5]; organic solvent NMP) was “≧1.0 mg/ml”. The “Log P” value ([5]; organic solvent NMP) was “miscible”, the “Apparent Sol.” value ([5]; organic solvent PEG 400) was “≧0.2 mg/ml” and the “Log P” value ([5]; organic solvent PEG 400) was “miscible”. For the same compound, the “Apparent Sol.” value [5, 10] was “≧0.5 mg/ml”, the “Log P” value [5, 10] was “miscible” and the “Log P” value ([5]; organic solvent THF) was “miscible”. For the same compound, the “Apparent Sol.” value ([5]; organic solvent TMP) was “≧0.2 mg/ml”, the “Log P” value ([5]; organic solvent TMP) was “miscible” and the “Apparent Sol.” value [5, 11] was “≧0.5 mg/ml”. For the same compound, the “Log P” value [5, 11] was “miscible”, the “Apparent Sol.” value [5, 12] was “≧0.15 mg/ml” and the “Log P” value [5, 12] was “miscible”. The “Apparent Sol.” value ([5]; organic solvent i-Propanol) was “≧1.0 mg/ml”, the “Log P” value ([5]; organic solvent i-Propanol) was “miscible” and the “structure by CD after extraction back into aqueous phase” value [9] was “overall structure similar to that of native insulin”. The “Tm in 1-octanol above that observed in water” value [7] was “more than 30 degrees”, the “Tm of thermal denaturation” value ([7]; in 1-octanol (SDS complex), molar ellipticity at 222 nm) was 98 °C and the “Tm of thermal denaturation” value ([7]; in aqueous solution) was “about 65 °C”.
